Reference: PMC12263829 (Nature Communications, 2025)

B1: EGFP-EWSR1::FLI1 (natural protein, human, UniProt Q01844 1-264, looked up)
chain: MASTDYSTYSQAAAQQGYSAYTAQPTQGYAQTTQAYGQQSYGTYGQPTDVSYTQAQTTATYGQTAYATSYGQPPTGYTTPTAPQAYSQPVQGYGTGAYDTTTATVTTTQASYAAQSAYGTQPAYPAYGQQPAATAPTRPQDGNKPTETSQPQSSTGGYNQPSLGYGQSNYSYPQVPGSYPMQPVTAPPSYPPTSYSSTQPTSYDQSSYSQQNTYGQPSSYGQQSSYGQQSSYGQQPPTSYPPQTGSYSQAPSQYSQQSSSYGQQPSYDSVRRGAWGNNMNSGLNKSPPLGGAQTISKNTEQRPQPDPYQILGPTSSRLANPGSGQIQLWQFLLELLSDSANASCITWEGTNGEFKMTDPDEVARRWGERKSKPNMNYDKLSRALRYYYDKNIMTKVHGKRYAYKFDFHGIAQALQPHPTESSMYKYPSDISYMPSYHAHQQKVNFVPPHPSSMPVTSSSFFGAASQYWTSPTGGIYPNPNVPRHPNTHVPSHLGSYY
B2: EGFP-∆63EWSR1::FLI1 (domain or fragment, human, UniProt Q01844 64-264, looked up)
chain: TAYATSYGQPPTGYTTPTAPQAYSQPVQGYGTGAYDTTTATVTTTQASYAAQSAYGTQPAYPAYGQQPAATAPTRPQDGNKPTETSQPQSSTGGYNQPSLGYGQSNYSYPQVPGSYPMQPVTAPPSYPPTSYSSTQPTSYDQSSYSQQNTYGQPSSYGQQSSYGQQSSYGQQPPTSYPPQTGSYSQAPSQYSQQSSSYGQQPSYDSVRRGAWGNNMNSGLNKSPPLGGAQTISKNTEQRPQPDPYQILGPTSSRLANPGSGQIQLWQFLLELLSDSANASCITWEGTNGEFKMTDPDEVARRWGERKSKPNMNYDKLSRALRYYYDKNIMTKVHGKRYAYKFDFHGIAQALQPHPTESSMYKYPSDISYMPSYHAHQQKVNFVPPHPSSMPVTSSSFFGAASQYWTSPTGGIYPNPNVPRHPNTHVPSHLGSYY

Molecular target: the molecule itself
Assay: Number and Brightness

Protein | stoichiometry N [molecules]
B1 | 3 to 4
B2 | 3 to 4
